For assay [1], the target named is SARS-CoV-2 WT RBD蛋白 (SARS-CoV-2, UniProt P0DTC2 319-541).
The target of assay [2] is SARS-CoV-2野生型病毒的S蛋白 (SARS-CoV-2, UniProt P0DTC2 14-1273). The assay can be described thus: cell-based or functional assay.

B1: 全人源抗SARS-CoV-2单克隆抗体ZWD12 (antibody, V domains shown)
VH: EVQLVESGGGLVQPGGTLRLSCVASGFSFSNYWMSWVRQAPGKGLEWVANIKQDGSETHYVDSVKGRFTISRDNAKNSLYLQMNSLRADDTAVYFCVKDRTDWELIRGYFGHWGQGTQITVSS
VL: DIVMTQTPSSLSLSPGDRATLSCRASENIINYLAWYQQRPGQSPRLLIYDASNRATGIPARFSGSGSGTDFTLTISSLEPEDFAVYYCQQRIIWPPYTFGQGTKVDIKR
Regarding B1, in assay [1], the affinity, expressed as Kd, was 0.356 nM; the koff – broadly, the first-order rate constant of dissociation – came out at 0.000167 s⁻¹; the kon (commonly the second-order rate constant of association) turned out to be 468000 M⁻¹ s⁻¹. Further, in assay [2], the “假病毒中和 EC50 (luciferase, HEK293T cells)” value amounted to 0.00586 µg/mL and the “真病毒中和 EC50 (Vero E6 cells, crystal violet)” value came to 0.103 µg/mL.

For the origin of these results see patent CN113735969A (INST MILITARY MEDICINE ACADEMY MILITARY SCIENCES PLA, dated 2021).
